Measured values reported in US20170059576, “METHOD OF DETERMINING A PROTEIN IN A SAMPLE” (RHEINISCHE FRIEDRICH-WILHELMS UNIVERSITAT BONN, published 2017).

Assays:
Cytohesin-2 Sec7 domain [1] = target: T1, Cytohesin-2 Sec7 domain (UniProt Q99418 Q99418:72-201); test: filter; competition vs 32P-C10.35; IC50 only in figure; 3 mM MgCl2 in PBS, 0.005% Triton X-100, 37 C; conditions: tags: His (detected with anti-penta-His); expressed in E. coli; label: 5'-32P for radiolabeled tracer; stem with a double bulge
T1 sequence: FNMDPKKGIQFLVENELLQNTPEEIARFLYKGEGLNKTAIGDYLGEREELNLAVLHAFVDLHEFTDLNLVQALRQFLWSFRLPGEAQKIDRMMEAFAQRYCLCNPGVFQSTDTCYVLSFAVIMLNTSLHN
Description: (§1) To determine the affinity, ˜10 fmol of radiolabeled aptamer was incubated with protein dilution series for 30 min at 37° C. in 25 μL of buffer containing 1 mg/ml E. coli tRNA (Roche, Mannheim, Germany), 1 μg/ml BSA, 3 mM MgCl₂ in PBS, pH 7.4. For Sec7, 0.005% Triton X-100 was added and for c-Met-Fc, 1 mg/ml of BSA was used instead of 1 μg/ml. The aptamer-protein complexes were captured on a Protran™ nitrocellulose membrane (GE Healthcare) that was pre-incubated in 0.4 M KOH for 10 minutes, followed by washing with ddH₂O and PBS containing 3 mM MgCl₂, pH 7.4. After addition of the aptamer-protein solution, the filter was washed 4 times with PBS containing 3 mM MgCl₂, pH 7.4. Radioactivity was quantified using a Fujifilm Fla-3000 PhosphorImager and AIDA software package. The percentage of bound aptamer was calculated using equation 1:
(§2) Filter retention assays in which the 5′-functionalized aptamer competed with the non-functionalized aptamer for binding to Sec-7 were performed as described above to test the influence of the 5′-functionalization on aptamer binding.

Cytohesin-2 Sec7 domain [2] = target: T1, Cytohesin-2 Sec7 domain; test: 365 nm photo-crosslinking, Western blot; marginal at highest concentration only; no band in H460 lysate (p104); conditions: tags: His (detected with anti-penta-His); expressed in E. coli; label: biotin
Description: Incubation of the target protein Sec7 with the 5′-functionalized aptamer C10.35 was performed by mixing 250 nM of the aptamer with different protein concentrations at 37° C. for 30 min as described in Examples 2 and 4. Crosslinking also was performed on ice by illuminating at 365 nm for 10 minutes.
Further, the amount of cross-linking of the 5′-functionalized aptamer C 10.35 to Sec-7 was investigated after incubating […] 167 nm, 56 nm and 19 nM Sec-7 with 250 nM of the 5′-functionalized aptamers C10.35 and C10.35 C15T, followed by UV irradiation at 365 nm using SDS-PAGE, followed by western blotting using neutravidin-dylight™ 800 (Thermo Scientific) to visualize biotinylated proteins. Anti-penta-his (1:2000, Qiagen) was used to visualize the total amount of Sec7 and goat-anti-mouse-IgG-dylight™ 800 (Thermo Scientific) was used as a secondary antibody. The blots were scanned at 800 nm using an Odyssey scanner (Li-cor Biotechnology, Bad Homburg, Germany).

Cytohesin-2 Sec7 domain [3] = target: T1, Cytohesin-2 Sec7 domain; test: filter; affinity not altered vs unfunctionalized C10.35; high UV cross-linking; also cross-links in H460 lysate (p104); conditions: tags: His (detected with anti-penta-His); expressed in E. coli; label: biotin; stem with a double bulge
Description: as §1, §2

[4] = target: T2, c-Met ectodomain-Fc fusion (HGFR) (UniProt P08581 P08581:25-932); test: filter; competition vs 32P-trCLN3; PBS pH 7.4, 3 mM MgCl2, tRNA 1 mg/ml, BSA 1 mg/ml, 37 C; conditions: tags: human IgG1 Fc fusion; His (detected with anti-penta-His); R&D Systems; chain copies: 2; label: biotin; G4
T2 sequence (P08581 25-932, one chain of several): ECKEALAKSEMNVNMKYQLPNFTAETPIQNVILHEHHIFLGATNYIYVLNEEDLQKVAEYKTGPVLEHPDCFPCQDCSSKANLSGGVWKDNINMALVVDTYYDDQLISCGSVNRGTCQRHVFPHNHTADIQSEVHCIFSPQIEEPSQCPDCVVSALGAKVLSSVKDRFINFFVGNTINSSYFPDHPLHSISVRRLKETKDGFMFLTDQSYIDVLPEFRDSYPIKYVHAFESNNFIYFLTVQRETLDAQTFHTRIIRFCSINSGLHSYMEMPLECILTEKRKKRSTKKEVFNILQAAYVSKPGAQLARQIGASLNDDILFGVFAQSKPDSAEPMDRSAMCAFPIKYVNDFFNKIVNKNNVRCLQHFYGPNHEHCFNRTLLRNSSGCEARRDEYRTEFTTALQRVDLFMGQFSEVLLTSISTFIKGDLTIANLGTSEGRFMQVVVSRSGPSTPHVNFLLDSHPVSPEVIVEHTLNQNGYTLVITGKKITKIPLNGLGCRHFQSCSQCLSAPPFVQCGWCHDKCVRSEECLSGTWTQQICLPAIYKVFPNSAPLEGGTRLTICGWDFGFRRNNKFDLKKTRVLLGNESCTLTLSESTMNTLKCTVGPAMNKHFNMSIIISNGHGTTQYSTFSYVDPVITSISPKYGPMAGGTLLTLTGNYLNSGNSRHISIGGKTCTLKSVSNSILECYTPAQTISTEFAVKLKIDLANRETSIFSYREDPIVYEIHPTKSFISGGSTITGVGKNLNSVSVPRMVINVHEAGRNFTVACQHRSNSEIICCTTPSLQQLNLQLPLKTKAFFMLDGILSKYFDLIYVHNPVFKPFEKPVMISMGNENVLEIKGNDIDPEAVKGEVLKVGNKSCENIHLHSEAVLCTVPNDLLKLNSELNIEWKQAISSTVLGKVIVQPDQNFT
Description: as §1, with “1: […]” for “1:”

[5] = target: T2, c-Met ectodomain-Fc fusion (HGFR); test: filter; competition vs 32P-trCLN3; PBS pH 7.4, 3 mM MgCl2, tRNA, BSA, 37 C; nanomolar affinity stated; conditions: tags: human IgG1 Fc fusion; His (detected with anti-penta-His); R&D Systems; chain copies: 2; label: 5'-32P for radiolabeled tracer; G4 (two G-quadruplexes)
[6] = target: T2, c-Met ectodomain-Fc fusion (HGFR); test: filter; no binding in tested range; in photo-crosslinking 24-fold lower signal than ABAL-trCLN3 at 500 nM c-Met (p87); conditions: tags: human IgG1 Fc fusion; His (detected with anti-penta-His); R&D Systems; chain copies: 2; label: biotin
Description: as §1, with “1: […]” for “1:”

## ACTCGGGAGGACTGCTTAGGATTGCGAACCCGGGT (ssDNA) [C10.35]
Cytohesin-2 Sec7 domain [1]
  binding result: binds

## ACTCGGGAGGACTGTTTAGGATTGCGAACCCGGGT (ssDNA, 5'-hexylamine coupled Sulfo-SBED (phenyl azide, biotin)) [ABAL-C10.35 C15T]
Cytohesin-2 Sec7 domain [2]
  binding signal: 7 fold lower cross-linking than ABAL-C10.35

## ACTCGGGAGGACTGCTTAGGATTGCGAACCCGGGT (ssDNA, 5'-hexylamine coupled Sulfo-SBED (phenyl azide, biotin)) [ABAL-C10.35]
Cytohesin-2 Sec7 domain [3]
  binding result: binds

## TGGATGGTAGCTCGGTCGGGGTGGGTGGGTTGGCAAGTCT (ssDNA, 5'-hexylamine coupled Sulfo-SBED (phenyl azide, biotin)) [ABAL-trCLN3]
[4]
  IC50: 50 nM

## TGGATGGTAGCTCGGTCGGGGTGGGTGGGTTGGCAAGTCT (ssDNA) [trCLN3]
[5]
  IC50: 76 nM

## TGGATGGTAGCTCGGTCGGGGTGGATGGGTTGGCAAGTCT (ssDNA, 5'-hexylamine coupled Sulfo-SBED (phenyl azide, biotin)) [ABAL-trCLN3 G25A]
[6]
  binding result: no binding
